Patent US11760795B2, “Monoclonal antibodies to growth and differentiation factor 15 (GDF-15), and uses thereof for treating cancer cachexia and cancer” (JULIUS-MAXIMILIANS-UNIVERSITÄT WÜRZBURG, priority 2014, dated 2023)

Experiments:
[1] = Study No. 140123: body weight of UACC-257 inoculated mice (cancer-induced weight loss); format: in vivo, Balb/c^nu/nu mice; conditions: 38 days
Experimental: FIG. 5: Treatment of cancer cachexia with anti-GDF-15 antibodies. […] The changes of the body weight are depicted in percent as compared to the starting body weight on day 0, for a period of 38 days.
(§1) Treatment of cancer-induced weight loss with anti-GDF-15 antibodies. In the underlying animal study No. 140123, 10 Balb/c^nu/nu mice per treatment group were subcutaneously inoculated with 10×10^6 UACC-257 cells per animal in a 1:1 volume ratio with matrigel (100 μl cells+100 μl matrigel). The animals were treated on the same day with the respective antibodies, as indicated below:
The study was carried out in a double-blinded manner for the treatment with the antibodies and for the treatment with PBS.

[2] = tested on: prostate cancer cell line LnCap; assay: Cancer cell proliferation, Alamar Blue metabolic assay; format: cell-based; conditions: after 72 hrs, compared with control group without antibody
Text: The strongest antiproliferative effect was observed using the prostate cancer cell line LnCap, which produces lots of GDF-15.

[3] = Aggregation study: shaking 48 hours at room temperature, visual analysis for precipitates; format: physicochemical; conditions: PBS, no stabilizing proteins for H1L5
Experimental: In order to test the aggregation properties of anti-GDF-15 antibodies, antibody samples were shaken for 48 hours at room temperature in microcentrifuge tubes, and subsequently, the tubes were visually analyzed for aggregated antibody precipitates.

[4] = tested on: 13 mer linear peptides derived from GDF-15; assay: Epitope mapping on peptide array of 13 mer linear peptides derived from GDF-15; format: binding, human; conditions: antibody dilution 1:100, overnight at 4° C.
Experimental: Epitope Mapping: Monoclonal mouse antibody GDF-15 against 13 mer linear peptides derived from GDF-15
The protein sequence was translated into 13 mer peptides with a shift of one amino acid. The C- and N-termini were elongated by a neutral GSGS linker to avoid truncated peptides (bold letters).
Primary sample: Monoclonal mouse antibody GDF-15 (1 μg/μl):
Staining in incubation buffer for 16 h at 4° C. at a dilution of 1:100 and slight shaking at 500 rpm
Secondary antibody: Goat anti-mouse IgG (H+L) IRDye680, staining in incubation buffer with a dilution of 1:5000 for 30 min at room temperature (RT)
After pre-swelling for 10 min in standard buffer, the peptide microarray was incubated overnight at 4° C. with monoclonal mouse antibody GDF-15 at a dilution of 1:100. Repeated washing in standard buffer (2×1 min) was followed by incubation for 30 min with the secondary antibody at a dilution of 1:5000 at room temperature. After 2×10 sec. washing in standard buffer and short rinsing with dist. water, the PEPperCHIP® was dried in a stream of air. Read-out was done with Odyssey® Imaging System at a resolution of 21 μm and green/red intensities of 7/7 before and after staining of control peptides by anti-HA and anti-FLAG(M2) antibodies.

[5] = Protein A elution at physiological pH and 10 fold concentration via spin columns, turbidity; format: physicochemical; conditions: TRIS Buffer at physiological pH, from 0.5 mg/ml
Experimental: FIG. 7: Improved solubility of the chimeric and the humanized antibody at physiological pH.
5 mg of antibody (B1-23, chimeric B1-23=“ChimB1-23”, H1L5) were loaded on Proteus™ protein A columns, eluted and collected in a TRIS Buffer at physiological pH. After elution, the quality of the purified antibodies was assessed by Coomassie Brilliant Blue gel analysis. The concentration of the eluted antibodies was measured photometrically as well as in a Bradford assay (Roti-Quant, Carl Roth, Karlsruhe, Germany). […] The antibodies were then 10 fold concentrated via spin columns (Centricon, MWCO 30). […] All concentrated eluates were then centrifuged for 5 min at 13000 rpm in order to precipitate antibody aggregates. The remaining amount of soluble antibodies was finally determined via Bradford assay from the supernatant.

[6] = Study No. 140123: feed consumption of UACC-257 inoculated mice; format: in vivo, Balb/c^nu/nu mice
Experimental: as §1
In addition to evaluating the mean body weight of the mice, the feed consumption of the mice was evaluated by pairwise comparisons of the study groups (Table 1).

hrGDF-15 = biological target: T1, hrGDF-15 (Homo sapiens, UniProt Q99988); assay: Colorimetric ELISA binding to coated hrGDF-15; conditions: serial 1:3 dilution from 333 ng/ml; in comparison to B12
T1 sequence (Q99988 with tags, fused parts or gaps limits assumed): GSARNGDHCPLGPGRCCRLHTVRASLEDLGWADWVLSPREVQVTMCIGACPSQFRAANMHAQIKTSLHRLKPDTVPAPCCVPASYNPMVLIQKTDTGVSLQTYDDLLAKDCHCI
Experimental: Additionally, by using a colorimetric assay, it was confirmed that all anti-GDF-15 antibodies used in the study bound to GDF-15 in a concentration-dependent manner. To determine the binding of B1-23 antibody variants to GDF-15, a […] ELISA experiment was performed. […] Therefore, Maxisorp 96 well plates (Nunc) were coated with hrGDF-15 (25 ng protein per well, 50 μl volume) over night at 4° C. The following day, plates were washed to remove unbound protein (3 times with 150 μl of PBS 0.05% Tween®) and non-specific binding sites were blocked with 150 μl of PBS 1% BSA for 2 hours at room temperature. Again, plates were washed and different variants of B1-23 test antibodies were applied (50 μl volume). To inquire specificity of the antibody binding, endpoint dilution was performed starting from 333 ng/ml and 1:3 serial dilution. As background control, PBS 1% BSA was applied. Following binding for 1 hour at room temperature, wells were washed as described above. As secondary antibody HRP conjugated Anti-human IgG (Life technologies, 1:5000) was applied for 1 hour at room temperature. Wells were washed as described above to remove unbound secondary antibody. […] For analysis, optical density at 450 nm was quantified using the ELISA reader (Tecan Sunrise) and the corresponding Magellan software.

B1: mAb-B1-23: murine IgG2a (kappa) monoclonal anti-human GDF-15 antibody produced by hybridoma cell line B1-23, DSM ACC3142 (antibody, V domains shown)
VH: QVKLQQSGPGILQSSQTLSLTCSFSGFSLSTSGMGVSWIRQPSGKGLEWLAHIYWDDDKRYNPTLKSRLTISKDPSRNQVFLKITSVDTADTATYYCARSSYGAMDYWGQGTSVTVSS
VL: DIVLTQSPKFMSTSVGDRVSVTCKASQNVGTNVAWFLQKPGQSPKALIYSASYRYSGVPDRFTGSGSGTDFTLTISNVQSEDLAEYFCQQYNNFPYTFGGGTKLEIKRTVA
body weight change compared to day 0 [1]: increase in body weight
decrease of proliferation [2]: 30%
tendency to aggregate [3]: can form aggregates
interaction with linear 13 mer peptides derived from GDF-15 [4]: none of the linear 13 mer peptides derived from GDF-15 interacted
aggregation after 10 fold concentration [5]: presence of precipitates
Feed consumption per mouse and day ([6]; average over day 17-34 intervals, with standard deviation): 3.6 ± 0.2 g
feed consumption compared with groups which did not receive the anti-GDF-15 antibodies ([6]; mouse, in vivo): significantly higher
binding to GDF-15 in ELISA (hrGDF-15): clearly concentration-dependent binding
